Sequences and labels used below:
T1: 3xFLAG-tagged full-length human PNPLA1, partially purified (pcDNA4/HisMaxC-mut-3xFLAG-hsPNPLA1) (human, UniProt Q8N8W4-1 1-532)
T1 construct: human PNPLA1, full-length open reading frame of NM_001145717.1; also called 3xFLAG-PNPLA1; source: Expi293F, transfected, partially purified (IMAC, HisTrap HP)
T1 sequence (looked up): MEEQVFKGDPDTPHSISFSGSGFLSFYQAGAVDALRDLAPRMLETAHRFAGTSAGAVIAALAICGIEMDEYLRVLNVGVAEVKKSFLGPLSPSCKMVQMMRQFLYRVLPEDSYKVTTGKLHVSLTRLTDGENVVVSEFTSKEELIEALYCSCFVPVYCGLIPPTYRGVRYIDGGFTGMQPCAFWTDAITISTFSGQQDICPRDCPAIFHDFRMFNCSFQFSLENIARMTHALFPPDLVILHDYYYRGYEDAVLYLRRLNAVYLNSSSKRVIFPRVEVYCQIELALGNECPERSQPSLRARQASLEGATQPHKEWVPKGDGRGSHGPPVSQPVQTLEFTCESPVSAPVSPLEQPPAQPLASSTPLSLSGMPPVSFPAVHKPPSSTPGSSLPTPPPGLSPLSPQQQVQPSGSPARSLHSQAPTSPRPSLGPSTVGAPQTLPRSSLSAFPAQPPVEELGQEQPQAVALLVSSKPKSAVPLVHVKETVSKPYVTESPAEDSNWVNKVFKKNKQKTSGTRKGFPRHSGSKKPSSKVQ

B1: Xpress-tagged human ABHD5 p.E260K (natural protein, UniProt Q8WTS1 1-349, looked up)
chain: MAAEEEEVDSADTGERSGWLTGWLPTWCPTSISHLKEAEEKMLKCVPCTYKKEPVRISNGNKIWTLKFSHNISNKTPLVLLHGFGGGLGLWALNFGDLCTNRPVYAFDLLGFGRSSRPRFDSDAEEVENQFVESIEEWRCALGLDKMILLGHNLGGFLAAAYSLKYPSRVNHLILVEPWGFPERPDLADQDRPIPVWIRALGAALTPFNPLAGLRIAGPFGLSLVQRLRPDFKRKYSSMFEDDTVTEYIYHCNVQTPSGKTAFKNMTIPYGWAKRPMLQRIGKMHPDIPVSVIFGARSCIDGNSGTSIQSLRPHSYVKTIAILGAGHYVYADQPEEFNQKVKEICDTVD
notes: human ABHD5, full-length open reading frame of NM_016006.6 with the patient mutation p.E260K; Disease-associated (ABHD5-sEDD) missense variant made by site-directed mutagenesis; source: HEK293T, transfected (pcDNA4/HisMaxC), in lysate
B2: Xpress-tagged human ABHD5 p.S115G (natural protein, UniProt Q8WTS1 1-349, looked up)
chain: MAAEEEEVDSADTGERSGWLTGWLPTWCPTSISHLKEAEEKMLKCVPCTYKKEPVRISNGNKIWTLKFSHNISNKTPLVLLHGFGGGLGLWALNFGDLCTNRPVYAFDLLGFGRGSRPRFDSDAEEVENQFVESIEEWRCALGLDKMILLGHNLGGFLAAAYSLKYPSRVNHLILVEPWGFPERPDLADQDRPIPVWIRALGAALTPFNPLAGLRIAGPFGLSLVQRLRPDFKRKYSSMFEDDTVTEYIYHCNVQTPSGETAFKNMTIPYGWAKRPMLQRIGKMHPDIPVSVIFGARSCIDGNSGTSIQSLRPHSYVKTIAILGAGHYVYADQPEEFNQKVKEICDTVD
notes: human ABHD5, full-length open reading frame of NM_016006.6 with the patient mutation p.S115G; Disease-associated (ABHD5-sEDD) missense variant made by site-directed mutagenesis; source: HEK293T, transfected (pcDNA4/HisMaxC), in lysate
B3: Xpress-tagged human ABHD5 p.G271R (natural protein, UniProt Q8WTS1 1-349, looked up)
chain: MAAEEEEVDSADTGERSGWLTGWLPTWCPTSISHLKEAEEKMLKCVPCTYKKEPVRISNGNKIWTLKFSHNISNKTPLVLLHGFGGGLGLWALNFGDLCTNRPVYAFDLLGFGRSSRPRFDSDAEEVENQFVESIEEWRCALGLDKMILLGHNLGGFLAAAYSLKYPSRVNHLILVEPWGFPERPDLADQDRPIPVWIRALGAALTPFNPLAGLRIAGPFGLSLVQRLRPDFKRKYSSMFEDDTVTEYIYHCNVQTPSGETAFKNMTIPYRWAKRPMLQRIGKMHPDIPVSVIFGARSCIDGNSGTSIQSLRPHSYVKTIAILGAGHYVYADQPEEFNQKVKEICDTVD
notes: human ABHD5, full-length open reading frame of NM_016006.6 with the patient mutation p.G271R; Disease-associated (ABHD5-sEDD) missense variant made by site-directed mutagenesis; source: HEK293T, transfected (pcDNA4/HisMaxC), in lysate
B4: Xpress-tagged human ABHD5 p.H82R (natural protein, UniProt Q8WTS1 1-349, looked up)
chain: MAAEEEEVDSADTGERSGWLTGWLPTWCPTSISHLKEAEEKMLKCVPCTYKKEPVRISNGNKIWTLKFSHNISNKTPLVLLRGFGGGLGLWALNFGDLCTNRPVYAFDLLGFGRSSRPRFDSDAEEVENQFVESIEEWRCALGLDKMILLGHNLGGFLAAAYSLKYPSRVNHLILVEPWGFPERPDLADQDRPIPVWIRALGAALTPFNPLAGLRIAGPFGLSLVQRLRPDFKRKYSSMFEDDTVTEYIYHCNVQTPSGETAFKNMTIPYGWAKRPMLQRIGKMHPDIPVSVIFGARSCIDGNSGTSIQSLRPHSYVKTIAILGAGHYVYADQPEEFNQKVKEICDTVD
notes: human ABHD5, full-length open reading frame of NM_016006.6 with the patient mutation p.H82R; Disease-associated (ABHD5-sEDD) missense variant made by site-directed mutagenesis; source: HEK293T, transfected (pcDNA4/HisMaxC), in lysate
B5: Xpress-tagged human ABHD5 p.Q130P (natural protein, UniProt Q8WTS1 1-349, looked up)
chain: MAAEEEEVDSADTGERSGWLTGWLPTWCPTSISHLKEAEEKMLKCVPCTYKKEPVRISNGNKIWTLKFSHNISNKTPLVLLHGFGGGLGLWALNFGDLCTNRPVYAFDLLGFGRSSRPRFDSDAEEVENPFVESIEEWRCALGLDKMILLGHNLGGFLAAAYSLKYPSRVNHLILVEPWGFPERPDLADQDRPIPVWIRALGAALTPFNPLAGLRIAGPFGLSLVQRLRPDFKRKYSSMFEDDTVTEYIYHCNVQTPSGETAFKNMTIPYGWAKRPMLQRIGKMHPDIPVSVIFGARSCIDGNSGTSIQSLRPHSYVKTIAILGAGHYVYADQPEEFNQKVKEICDTVD
notes: human ABHD5, full-length open reading frame of NM_016006.6 with the patient mutation p.Q130P; Disease-associated (ABHD5-sEDD) missense variant made by site-directed mutagenesis; source: HEK293T, transfected (pcDNA4/HisMaxC), in lysate
B6: Xpress-tagged human ABHD5 p.R297N (natural protein, UniProt Q8WTS1 1-349, looked up)
chain: MAAEEEEVDSADTGERSGWLTGWLPTWCPTSISHLKEAEEKMLKCVPCTYKKEPVRISNGNKIWTLKFSHNISNKTPLVLLHGFGGGLGLWALNFGDLCTNRPVYAFDLLGFGRSSRPRFDSDAEEVENQFVESIEEWRCALGLDKMILLGHNLGGFLAAAYSLKYPSRVNHLILVEPWGFPERPDLADQDRPIPVWIRALGAALTPFNPLAGLRIAGPFGLSLVQRLRPDFKRKYSSMFEDDTVTEYIYHCNVQTPSGETAFKNMTIPYGWAKRPMLQRIGKMHPDIPVSVIFGANSCIDGNSGTSIQSLRPHSYVKTIAILGAGHYVYADQPEEFNQKVKEICDTVD
notes: human ABHD5, full-length open reading frame of NM_016006.6 with the patient mutation p.R297N; Disease-associated (ABHD5-sEDD) missense variant made by site-directed mutagenesis; source: HEK293T, transfected (pcDNA4/HisMaxC), in lysate

This assay has as its target T1, 3xFLAG-tagged full-length human PNPLA1, …. In words: ELISA; solid-phase interaction assay: 1.8 μg/well of purified 3xFLAG-PNPLA1, PLIN2 or PLIN3 coated on MaxiSorp plates (50 mM Tris-HCl pH 8.0, 200 mM NaCl); 40 μg HEK293T lysate with Xpress-tagged ABHD5 variants in TBS with 2% BSA and 0.05% Tween 20, overnight at 4°C; anti-Xpress and HRP secondary antibody, TMB, absorbance at 620 nm, background subtracted and normalised to expression. Conditions: one partner purified.
On to B1, for which the “change of PNPLA1 binding (normalised absorbance) against wild-type ABHD5” value is 25%.
As for B2, the figure is -17%; as for B3, -59%; as for B4, 44%.
The value for B5 was 16%; that for B6 was -87%.

The values are drawn from article PMC12465037, “Defective targeting of PNPLA1 to lipid droplets causes ichthyosis in ABHD5-syndromic epidermal differentiation disorder” (Journal of Lipid Research, 2025).
